Test results from patent US20080005813A1, “Polypeptide Having Function of Cinnamyl Alcohol Dehydrogenase, Polynucleotide Encoding the Polypeptide and Those Uses” (GENOMINE, INC., priority 2005, published 2008).
One block for each molecule: values may come before it.

How the values were obtained:
[1] = target: AtCAD-H protein (cinnamyl alcohol dehydrogenase) (Arabidopsis thaliana, UniProt F4K152); experiment: Enzyme activity of purified AtCAD-H protein, backward reaction (Lineweaver-Burk); format: biochemical; settings: substrate coniferyl alcohol, NADPH^+ in place of NADPH, Tris-HCl pH 9.3, 37° C.
Procedure: (§1) In order to identify whether the isolated protein has the cinnamyl alcohol dehydrogenase function related to lignin biosynthesis, the enzyme activity in forward reaction was measured using coniferaldehyde as a substrates. Also, the enzyme activity in backward reaction was measured using coniferyl alcohol as a substrates so as to identify whether the enzyme also involves in backward reaction or not.
(§2) The enzyme activities were measured at 405 nm using a microplate reader (Bio-rad Backman Microplate Reader) adjusted at 37° C. according to the method of Mitchell et al. (Mitchell et al. Planta, 208: 31-47, 1998). In […] of the reaction solution for the measurement of the enzyme activity in forward reaction, 100 mM Tris-buffer (Tris-HCl pH 9.3), […], and 2-3 μg of the protein purified in Example 2-2 were contained. The conditions of the reaction solution for the measurement of the enzyme activity in backward reaction is the same as that of the reaction solution of forward reaction, except that 100 mM NADPH^+ was contained in place of 100 mM NADPH. […]
(§3) Meanwhile, the enzyme activity of the purified protein was suitable for Michaelis-Menten kinetics for 100 mM coniferyl alcohol, that is, the substrate of backward reaction. The reaction velocities were measured according to variation of substrate concentration, and represented in a Lineweaver-Burk's plot (see FIG. 2b). […]

[2] = substrate: COc1cc(/C=C/CO)ccc1O; experiment: as above; format: biochemical, Arabidopsis thaliana; settings: other: backward reaction, substrate coniferyl alcohol, NADPH^+ in place of NADPH, Tris-HCl pH 9.3, 37° C.
Procedure: as §1, §2, §3

[3] = substrate: COc1cc(/C=C/C=O)ccc1O; experiment: Enzyme activity of purified AtCAD-H protein, forward reaction (Lineweaver-Burk); format: biochemical, Arabidopsis thaliana; settings: other: forward reaction, substrate coniferaldehyde, NADPH, Tris-HCl pH 9.3, 37° C., 405 nm
Procedure: as §1, §2
The enzyme activity of the purified protein was suitable for Michaelis-Menten kinetics for 100 mM coniferaldehyde, that is, the substrate of forward reaction. The reaction velocities were measured according to variation of substrate concentration, and represented in a Lineweaver-Burk's plot (see FIG. 2a).

Vmax [1]: 0.102
Molecule: COc1cc(/C=C/CO)ccc1O [coniferyl alcohol]

B1: AtCAD-H protein (cinnamyl alcohol dehydrogenase) (Arabidopsis thaliana) (protein)
chain: MANSGEGKVVCVTGASGYIASWLVKFLLSRGYTVKASVRDPSDPKKTQHLVSLEGAKERLHLFKADLLEQGSFDSAIDGCHGVFHTASPFFNDAKDPQAELIDPAVKGTLNVLNSCAKASSVKRVVVTSSMAAVGYNGKPRTPDVTVDETWFSDPELCEASKMWYVLSKTLAEDAAWKLAKEKGLDIVTINPAMVIGPLLQPTLNTSAAAILNLINGAKTFPNLSFGWVNVKDVANAHIQAFEVPSANGRYCLVERVVHHSEIVNILRELYPNLPLPERCVDENPYVPTYQVSKDKTRSLGIDYIPLKVSIKETVESLKEKGFAQF
Km [2]: 374 µM
Km [3]: 19.8 µM
